Here are results for 3 molecules from patent US20230034906A1 (TRINOMAB BIOTECH, published 2023).

Assay [1] concerns the target T1, gB_Towne protein with N383 mutated into glutamine (human cytomegalovirus, strain Towne, UniProt F5HB53 25-700).
T1 chain: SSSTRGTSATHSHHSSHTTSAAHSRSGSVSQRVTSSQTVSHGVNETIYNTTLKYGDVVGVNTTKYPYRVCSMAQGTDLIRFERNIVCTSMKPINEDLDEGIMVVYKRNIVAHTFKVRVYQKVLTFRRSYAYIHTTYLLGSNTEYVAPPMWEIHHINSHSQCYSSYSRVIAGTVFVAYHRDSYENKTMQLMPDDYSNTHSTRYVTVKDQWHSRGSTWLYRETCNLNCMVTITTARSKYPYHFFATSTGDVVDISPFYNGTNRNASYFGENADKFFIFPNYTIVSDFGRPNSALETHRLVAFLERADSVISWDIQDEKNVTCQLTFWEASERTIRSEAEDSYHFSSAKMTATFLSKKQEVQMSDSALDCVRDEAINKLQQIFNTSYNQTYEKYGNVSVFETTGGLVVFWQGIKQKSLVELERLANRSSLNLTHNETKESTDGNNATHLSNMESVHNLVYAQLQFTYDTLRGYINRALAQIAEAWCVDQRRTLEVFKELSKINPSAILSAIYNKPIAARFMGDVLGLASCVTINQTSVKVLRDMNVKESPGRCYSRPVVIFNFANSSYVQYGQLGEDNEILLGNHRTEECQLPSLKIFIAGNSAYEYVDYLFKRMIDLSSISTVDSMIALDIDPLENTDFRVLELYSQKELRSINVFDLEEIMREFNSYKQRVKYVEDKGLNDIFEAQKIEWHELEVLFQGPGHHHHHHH
Put plainly: indirect ELISA, antibody titrated on gB glycoprotein mutant. Background: An ELISA detects its analyte on a solid surface through an enzyme-linked reagent.

In assay [2] the target is gB glycoprotein of HCMV standard strain Towne, on the virus (human cytomegalovirus, strain Towne, UniProt P13201 23-907). Put plainly: cell-based or functional assay.
Assay [3] concerns the target T2, homologous sequence of gB glycoprotein of 56 virus strains (gB_Con. Strain) (human cytomegalovirus (homologous …, UniProt P06473 25-699)).
T2 construct: C-terminal tags are part of the entry
T2 chain: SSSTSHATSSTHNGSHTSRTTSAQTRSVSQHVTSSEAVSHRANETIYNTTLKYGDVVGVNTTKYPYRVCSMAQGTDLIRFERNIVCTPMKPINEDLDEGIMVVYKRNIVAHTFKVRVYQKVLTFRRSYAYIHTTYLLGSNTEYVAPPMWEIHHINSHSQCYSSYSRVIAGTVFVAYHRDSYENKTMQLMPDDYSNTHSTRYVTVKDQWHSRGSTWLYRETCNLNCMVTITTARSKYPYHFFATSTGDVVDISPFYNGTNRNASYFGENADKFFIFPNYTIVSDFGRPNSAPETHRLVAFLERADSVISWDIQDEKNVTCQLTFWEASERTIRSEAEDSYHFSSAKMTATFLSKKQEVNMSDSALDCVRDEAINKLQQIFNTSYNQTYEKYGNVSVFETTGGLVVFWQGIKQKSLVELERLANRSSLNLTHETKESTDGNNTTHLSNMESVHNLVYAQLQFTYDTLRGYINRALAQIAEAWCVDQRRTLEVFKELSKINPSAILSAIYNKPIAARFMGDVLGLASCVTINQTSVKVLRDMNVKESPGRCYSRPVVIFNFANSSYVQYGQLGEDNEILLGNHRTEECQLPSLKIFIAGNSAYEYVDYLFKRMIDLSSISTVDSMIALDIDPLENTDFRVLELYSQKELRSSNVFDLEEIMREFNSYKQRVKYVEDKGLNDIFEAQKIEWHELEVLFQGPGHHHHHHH
Put plainly: ELISA, HEK293 culture supernatant on gB.

Assay [4] has as its target T3, HCMV gB glycoprotein of standard strain Towne (gB_Towne strain) (human cytomegalovirus, strain Towne, UniProt F5HB53 25-700).
T3 construct: also called antigen protein gB0049
Put plainly: SPR (Biacore), antibody captured by anti-human IgG (Fc) on CM5 chip, gB in solution. On the technique in general: Surface plasmon resonance follows binding to a sensor surface in real time, without labels.

Chain of gB glycoprotein of HCMV standard strain Towne, on the virus (P13201 23-907 limits assumed): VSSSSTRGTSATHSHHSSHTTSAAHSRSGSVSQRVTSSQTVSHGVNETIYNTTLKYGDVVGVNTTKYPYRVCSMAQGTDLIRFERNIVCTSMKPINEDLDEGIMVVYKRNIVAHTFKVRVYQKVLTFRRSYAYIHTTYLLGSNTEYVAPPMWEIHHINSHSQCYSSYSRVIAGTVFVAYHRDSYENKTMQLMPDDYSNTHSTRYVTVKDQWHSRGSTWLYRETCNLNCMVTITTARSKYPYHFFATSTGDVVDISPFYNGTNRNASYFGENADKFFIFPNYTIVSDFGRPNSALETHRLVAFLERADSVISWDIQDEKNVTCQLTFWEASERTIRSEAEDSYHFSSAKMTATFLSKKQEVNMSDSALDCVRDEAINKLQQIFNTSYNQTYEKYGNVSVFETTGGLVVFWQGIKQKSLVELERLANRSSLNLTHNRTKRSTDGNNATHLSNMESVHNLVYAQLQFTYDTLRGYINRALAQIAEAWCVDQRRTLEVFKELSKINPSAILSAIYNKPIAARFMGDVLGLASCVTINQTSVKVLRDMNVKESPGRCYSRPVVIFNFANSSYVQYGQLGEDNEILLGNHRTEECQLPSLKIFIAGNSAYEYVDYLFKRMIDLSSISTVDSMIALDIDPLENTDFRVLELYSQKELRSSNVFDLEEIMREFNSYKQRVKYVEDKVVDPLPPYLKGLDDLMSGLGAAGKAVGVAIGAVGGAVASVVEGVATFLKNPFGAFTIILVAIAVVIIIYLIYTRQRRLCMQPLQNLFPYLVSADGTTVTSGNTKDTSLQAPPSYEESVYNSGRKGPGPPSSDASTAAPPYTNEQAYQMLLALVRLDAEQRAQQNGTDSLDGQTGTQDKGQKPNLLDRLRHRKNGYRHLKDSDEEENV

B1: TRN1017 (antibody, V domains shown)
VH: QVLLVQSGGGLVQPGGSLRLACETSGFTFRHYWMHWVRQAPGKGLVWLSSIHGSGTTTRYADSVKGRFTISRDNAKNILFLQINSPRPEDTATYYCVRDDYTSGYNWGQGAFVTVSS
VL: QSALTQPASVSGSRGQSITIPCTGSRSDVGGYNYVSWYQQRPGKAPKLILYDVSHRPSGISDRFSGSKLGDTASLTISGLRDEDEADYYCSSYTTKSTLYVFGTGTTVSVLG
notes: lambda light chain; expressed in HEK293 cells
For the molecule B1, in assay [1], the binding result is “binds”. For the same molecule, the “EC50 of neutralizing Towne virus infection in primary HUVEC cells” value in assay [2] was 0.089 µg/mL.

B2: TRN1020 (antibody, V domains shown)
VH: EVQLVESGGGLAQPGGSLRLSCEASGFSFSTYAMSWVRQAPGKGLEWVAAVSGRGTSTFYLDSVKGRFTVSRDNSRTTVFLQMNSLKVEDTAFYYCAKDSYVGGSFDWLPRPDYFDHWGRGVLVTVSS
VL: QSVLTQPPSLSATPGQTVTISCSGSNSNIGKNYVSWYQQLPGAAPKLLLYNNNLRPSGIPARFSGSKSGTSATLGITGLQAGDEATYSCATWDKTLNFWVFGGGTKVTVLG
notes: Fully human antibody; lambda light chain
Turning to B2, in assay [2], the “EC50 of neutralizing Towne virus infection in primary HUVEC cells” value was 0.041 µg/mL. In addition, the binding result in assay [3] is listed as “binds”. Also, in assay [4], the equilibrium dissociation constant (Kd) was determined as 0.6 nM.

B3: TRN1018 (antibody, V domains shown)
VH: QVQLVQSGGGVVQPGRSLRLSCAASGFTFSNHGIHWVRQAPGKGLEWVAVISSDGTDTRDADSVRGRFTISRDNSRNTVYLDMNSLRAEDTAVYYCARDGRCGDERCYSGLPDVWGRGTRVSVSS
VL: EIVLTQSPATLSLSPGERATLSCRASQSVGGYLAWYQQKVGQAPRLLIYDASNRATGIPARFSGSGSGTDFTLTISSLEPEDFAVYYCQQRSNWPPLTFGGGTKVEIKR
notes: Fully human antibody; kappa light chain
In the case of B3, the binding result in assay [3] is “binds”. The Kd in assay [4] was 27.9 nM.

For orientation: Kd means the equilibrium constant for the complex coming apart. Read a low Kd as higher affinity.
